Patent CN111690066A

Key:
[1] = molecular target: 自产IL-4Rα重组蛋白 (in-house human recombinant IL-4Rα, residues 26-232 of NP_000409.1, expressed in 293F cells) (human) (UniProt P24394); test: indirect ELISA
[2] = molecular target: 近岸购买的IL-4Rα重组蛋白 (IL-4Rα, Novoprotein, Cat#CS33) (human) (UniProt P24394); test: indirect ELISA
[3] = molecular target: IL-4Rα on TF-1 cells (human) (UniProt P24394); test: cell-based or functional assay

EC50 [1]: 0.25 nM
EC50 [2]: 0.25 nM
EC50 of neutralisation of IL-4-induced TF-1 cell proliferation [3]: 0.18 nM
EC50 of neutralisation of IL-13-induced TF-1 cell proliferation [3]: 0.073 nM
Substance: Tab1 (dupilumab) (antibody)
